From US20190375823A1

Tests used:
[1] = molecular target: HER2 and HER3 on cells (MALME-3M or SKOV cells); experiment: FACS on MALME-3M cells, FITC-labeled anti-HSA antibodies; upper end of the range
[2] = molecular target: HER2 and HER3 on cells (MALME-3M or SKOV cells); experiment: FACS on SKOV-3 cells, FITC-labeled anti-HSA detection
[3] = molecular target: HER2 and HER3 on cells (MALME-3M or SKOV cells); experiment: FACS on SKOV cells (20120803), FITC-labeled anti-HSA antibodies; apparent Kd
[4] = molecular target: HER2 and HER3 on cells (MALME-3M or SKOV cells); experiment: FACS; column head prints Bmax (MALME 20120603); design: unit not given here
[5] = molecular target: HER2 and HER3 on cells (MALME-3M or SKOV cells); experiment: FACS on MALME-3M cells, FITC-labeled anti-HSA antibodies; lower end of the range
[6] = molecular target: HER2 and HER3 on cells (MALME-3M or SKOV cells); experiment: FACS on MALME-3M cells (20120529), FITC-labeled anti-HSA antibodies; apparent Kd
[7] = molecular target: HER2 and HER3 on cells (MALME-3M or SKOV cells); experiment: FACS on MALME-3M cells (2012529), FITC-labeled anti-HSA antibodies
[8] = molecular target: CD3 on Jurkat T cells (UniProt P07766); experiment: cell-based or functional assay
[9] = molecular target: CD19 on Raji B cells (UniProt P15391); experiment: cell-based or functional assay
Chain of CD19 on Raji B cells (P15391 20-556 limits assumed): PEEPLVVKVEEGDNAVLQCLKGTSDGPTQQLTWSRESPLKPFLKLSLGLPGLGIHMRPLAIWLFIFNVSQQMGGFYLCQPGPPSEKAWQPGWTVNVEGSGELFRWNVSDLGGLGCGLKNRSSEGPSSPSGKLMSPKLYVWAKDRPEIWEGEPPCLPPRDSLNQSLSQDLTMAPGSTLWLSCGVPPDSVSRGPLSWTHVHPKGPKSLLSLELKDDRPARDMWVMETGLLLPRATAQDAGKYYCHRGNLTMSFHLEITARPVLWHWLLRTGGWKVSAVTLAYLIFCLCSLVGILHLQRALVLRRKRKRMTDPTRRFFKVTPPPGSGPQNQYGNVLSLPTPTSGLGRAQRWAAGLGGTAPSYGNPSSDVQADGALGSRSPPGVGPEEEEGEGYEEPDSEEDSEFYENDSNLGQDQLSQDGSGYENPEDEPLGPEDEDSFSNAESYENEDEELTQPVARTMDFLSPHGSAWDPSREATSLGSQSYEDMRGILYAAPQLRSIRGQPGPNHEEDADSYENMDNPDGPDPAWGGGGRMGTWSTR

Chain of CD3 on Jurkat T cells (P07766 23-207): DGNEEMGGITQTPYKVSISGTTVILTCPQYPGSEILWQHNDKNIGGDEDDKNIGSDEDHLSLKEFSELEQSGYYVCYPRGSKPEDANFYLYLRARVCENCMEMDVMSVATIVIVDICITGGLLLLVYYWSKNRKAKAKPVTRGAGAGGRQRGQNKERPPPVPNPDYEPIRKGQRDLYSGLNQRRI

Row | Kd [1] [nM] | EC50 (read off the curve) [2] [nM] | Kd [3] [nM] | Bmax [4] | Kd [5] [nM] | Kd [6] [µM] | Bmax [7] | Whole cell bridging by FACS (Jurkat-violet + RAJI-FarRed): % of events labeled both violet and Far-red; needs binding of both CD3 and CD19 (% of total cells) [8] | Whole cell bridging by FACS (Jurkat-violet + RAJI-FarRed): % of events labeled both violet and Far-red; needs binding of both CD3 and CD19 (% of total cells) [9] | Substance
1 | 55 | 10 | 10.7 | 6580 | 5 | 12 | 1470 | – | – | v1087: benchmark control variant of MM-111 (anti-Her3 H3 scFv - AAS - albumin - AAAL - anti-Her2 B1D2 scFv) (bispecific antibody)
2 | – | – | – | – | – | – | – | 21 | 21 | v891: anti-CD3xCD19 BiTE control (bispecific antibody)
